Results as given in patent publication US20190367612A1 (Daiichi Sankyo, published 2019).

Experiments:
[1] = target: T1, cynomolgus monkey GPRC5D (cynomolgus monkey); test: flow cytometry on KMS-11_cGPRC5D cells (cynomolgus monkey GPRC5D), PE anti-human IgG Fc detection, rMFI = MFI minus isotype control
T1 construct: whole, on cells; Stably expressed on KMS-11 cells (KMS-11_cGPRC5D); also called cGPRC5D

[2] = target: T2, human GPRC5D (human, UniProt Q9NZD1 1-345); test: flow cytometry on KHM-1B cells (human GPRC5D), culture supernatant, PE anti-human IgG Fc, rMFI over human IgG isotype control
T2 construct: whole, on cells; also called hGPRC5D; G-protein coupled receptor family C group 5 member D
T2 sequence (Q9NZD1 whole entry): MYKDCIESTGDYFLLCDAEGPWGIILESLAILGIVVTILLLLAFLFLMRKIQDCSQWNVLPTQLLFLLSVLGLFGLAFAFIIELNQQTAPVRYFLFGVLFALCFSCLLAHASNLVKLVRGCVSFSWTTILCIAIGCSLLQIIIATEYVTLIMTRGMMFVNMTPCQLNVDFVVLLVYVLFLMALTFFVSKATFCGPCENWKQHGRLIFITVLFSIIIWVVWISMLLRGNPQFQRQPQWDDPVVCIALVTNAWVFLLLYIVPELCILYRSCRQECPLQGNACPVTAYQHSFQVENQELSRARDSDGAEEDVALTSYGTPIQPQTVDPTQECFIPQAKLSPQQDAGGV
Protocol: Human multiple myeloma cell line KHM-1B cells expressing GPRC5D were adjusted to a concentration of 2×10⁶ cells/mL with PBS containing 5% FBS, inoculated in an amount of 100 μL/well to a 96-well U-bottomed microplate, and centrifuged to remove a supernatant. The culture supernatant of each humanized anti-GPRC5D antibody obtained in Example 8)-3-1 or Human IgG isotype control antibody (Calbiochem/Merck Millipore Corp.) adjusted to 14 ng/mL to 30 μg/mL was added thereto in an amount of 100 μL/well, and the plate was left standing at 4° C. for 1 hour. The cells were washed twice with PBS containing 5% FBS. Then, R-Phycoerythrin AffiniPure F(ab′)2 Fragment Goat Anti-Human IgG, Fcγ Fragment Specific (Jackson ImmunoResearch Laboratories, Inc.) diluted 100-fold with PBS containing 5% FBS was added thereto in an amount of 100 μL/well, and the plate was left standing at 4° C. for 1 hour. The cells were washed twice with PBS containing 5% FBS and then resuspended in PBS containing 5% FBS, followed by detection using a flow cytometer (FACSCanto™ II; Becton, Dickinson and Company). The data was analyzed using Flowjo (Tree Star, Inc.). The PE fluorescence intensity of the cell fraction was plotted to a histogram, and the mean fluorescence intensity (MFI) was calculated. The MFI value of the control antibody was subtracted from the MFI value of the GPRC5D antibody to calculate a relative value of MFI (rMFI).

[3] = target: T3, human GPRC5D amino-terminal peptide MYKDCIESTGDYFLLCDAEGPWGIILE-K(Biotin)-NH2, having an intramolecular … (human, C-terminal lysine carrying biotin, C-terminal amide; intramolecularly formed disulfide bond); test: SPR (Biacore T200), kinetic analysis: biotinylated amino-terminal peptide of human GPRC5D on Sensor Chip CAP, scFv as analyte
T3 construct: Peptide Institute synthetic peptide; also called amino-terminal peptide of biotinylated human GPRC5D (disulfide bond present)
T3 peptide: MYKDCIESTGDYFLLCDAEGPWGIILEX
Protocol: The binding activity of the anti-GPRC5D antibodies against the amino-terminal peptide of human GPRC5D was tested by SPR using Biacore T200. The amino-terminal peptide of biotinylated human GPRC5D diluted to 2 nM with HBS-EP+ (manufactured by GE Healthcare Bio-Sciences Corp.) was immobilized on Sensor Chip CAP (manufactured by GE Healthcare Bio-Sciences Corp.) by contact at a rate of 10 μL/min for 180 seconds. Then, Kd was calculated by kinetic analysis using a plurality of concentrations of each scFv diluted with HBS-EP+ as analytes.

[4] = target: T2, human GPRC5D; test: flow cytometry on A4/Fuk cells (endogenous human GPRC5D), Penta-His Alexa Fluor 488 detection, rMFI = MFI minus sample without antibody
Protocol: Lymphoma cell line A4/Fuk cells (JCRB Cell Bank) were adjusted to an appropriate concentration with PBS containing 5% FBS. LIVE/DEAD Fixable Near-IR Dead Cell Stain Kit was added to the cells, which were then left standing at 4° C. for 30 minutes. The cells were washed twice with PBS containing 5% FBS, then adjusted to a concentration of 1×10⁶ cells/mL with PBS containing 5% FBS, inoculated in an amount of 100 μL/well to a 96-well U-bottomed microplate, and centrifuged to remove a supernatant. Each anti-GPRC5D-anti-CD3 bispecific molecule (C2037-C3E7034 to C3022-C3E7036 prepared in Example 12) diluted with PBS containing 5% FBS were added thereto in an amount of 100 μL/well, and the plate was left standing at 4° C. for 60 minutes. The cells were washed twice with PBS containing 5% FBS. Then, Penta-His Alexa Fluor 488 diluted with PBS containing 5% FBS was added thereto in an amount of 30 μL/well, and the plate was left standing at 4° C. for 30 minutes. The cells were washed twice with PBS containing 5% FBS and then resuspended in PBS containing 5% FBS, followed by detection using a flow cytometer (FACSCanto™ II). The data was analyzed using Flowjo. The mean fluorescence intensity (MFI) of Alexa Fluor 488 in a fraction free from dead cells was calculated. The MFI value of the antibody-unsupplemented sample was subtracted from the MFI value of the antibody-supplemented sample to calculate a relative value of MFI (rMFI).

B1: humanized anti-GPRC5D antibody h7B4_H3/L2 (antibody, human IgG1, kappa)
heavy: not shown
light: DIQMTQSPSSLSLSPGERATLSCKASQNINKYLDWYQQKPGQPPRLLIYNTNNLHTGIPDRFSGSGSGTDYTLTISRLEPEDFAVYYCLQRNSWYTFGQGTKVEIKRTVAAPSVFIFPPSDEQLKSGTASVVCLLNNFYPREAKVQWKVDNALQSGNSQESVTEQDSKDSTYSLSSTLTLSKADYEKHKVYACEVTHQGLSSPVTKSFNRGEC
notes: Human IgG1 / kappa
EC50 (read off the curve) [1]: ~2 nM
binding result [2]: binds

B2: humanized anti-GPRC5D antibody h7B4_H5/L1 (antibody, human IgG1, kappa, V domains shown)
VH: EIQLQESGPGLVKPSQTLSLTCTVSGYTITSGYDWSWIRKPPGNKMEWIAYMSYRGSTNYNPSLKSRVTISRDTSKNQFSLKLSSVTAADTAVYYCALTRTYWYNYYYVLDAWGQGTLVTVSS
VL: EIVLTQSPGTLSLSPGERATLSCKASQNINKYLDWYQQKPGQPPRLLIYNTNNLHTGIPDRFSGSGSGTDYTLTISRLEPEDFAVYYCLQRNSWYTFGQGTKVEIKR
notes: Human IgG1 / kappa
EC50 (read off the curve) [1]: ~2 nM
binding result [2]: binds

B3: humanized anti-GPRC5D antibody h7B4_H3/L1 (antibody, human IgG1, kappa)
heavy: not shown
light: EIVLTQSPGTLSLSPGERATLSCKASQNINKYLDWYQQKPGQPPRLLIYNTNNLHTGIPDRFSGSGSGTDYTLTISRLEPEDFAVYYCLQRNSWYTFGQGTKVEIKRTVAAPSVFIFPPSDEQLKSGTASVVCLLNNFYPREAKVQWKVDNALQSGNSQESVTEQDSKDSTYSLSSTLTLSKADYEKHKVYACEVTHQGLSSPVTKSFNRGEC
notes: Human IgG1 / kappa
EC50 (read off the curve) [1]: ~2 nM
binding result [2]: binds

B4: humanized anti-GPRC5D antibody h7B4_H2/L2 (antibody, human IgG1, kappa, V domains shown)
VH: EIQLQESGPGLVKPSQTLSLTCTVSGYTITSGYDWSWIRQPPGKGLEWIGYMSYRGSTNYNPSLKSRVTISRDTSKNQFSLKLSSVTAADTAVYYCALTRTYWYNYYYVLDAWGQGTLVTVSS
VL: DIQMTQSPSSLSLSPGERATLSCKASQNINKYLDWYQQKPGQPPRLLIYNTNNLHTGIPDRFSGSGSGTDYTLTISRLEPEDFAVYYCLQRNSWYTFGQGTKVEIKR
notes: Human IgG1 / kappa
EC50 (read off the curve) [1]: ~2 nM
binding result [2]: binds

B5: humanized anti-GPRC5D antibody h7B4_H1/L2 (antibody, human IgG1, kappa)
heavy: not shown
light: DIQMTQSPSSLSLSPGERATLSCKASQNINKYLDWYQQKPGQPPRLLIYNTNNLHTGIPDRFSGSGSGTDYTLTISRLEPEDFAVYYCLQRNSWYTFGQGTKVEIKRTVAAPSVFIFPPSDEQLKSGTASVVCLLNNFYPREAKVQWKVDNALQSGNSQESVTEQDSKDSTYSLSSTLTLSKADYEKHKVYACEVTHQGLSSPVTKSFNRGEC
notes: Human IgG1 / kappa
EC50 (read off the curve) [1]: ~3 nM
binding result [2]: binds

B6: E1018 scFv (high binding mutant of C3022) (scFv)
chain: QVQLVQSGAEVKKPGASVKVSCKASGYTFTGYYMHWVRQAPGQGLEWMGRINPNSGGTNYAQKFQGRVTMTRDTSISTAYMELSGLRSDDTAVYYCKSGSVRPPWGQGTLVTVSSGGGGSGGGGSGGGGSQPVLTQPPSASGTPGQRVTISCSGSRSNIGGNIVSWYQQFPGTAPRLLTYRNTRRPSGVPDRFSGSKSGTSASLAISGLQSEDEADYYCAAWDDSLGGVVFGGGTKLTVL
Kd [3]: 0.0032 nM

B7: anti-GPRC5D-anti-CD3 bispecific molecule C3048-C3E7036 (bispecific antibody)
scFv: GQVQLVQSGAEVKKPGSSVKVSCKASGGTFSRYAISWVRQAPGQGLEWMGGIIPIFGTANYAQKFQGRVTITADQSTRTAYMDLGRLRSEDTAVYYCALEGFRDSLKRNPFDIWGQGTMVTVSSGGGGSGGGGSGGGGSQSVVTQPPSVSAAPGQKVTISCSGGTTNIGSNYVSWYQQLPGTAPKFLMYENNKRPSGIPDRFSGSKSGTSATLAITGLQTGDEATYYCSTWDSSLNTGLFGGGTKLTVLGGGGSEVQLVESGGGLVQPGGSLRLSCAASGVTFNYYGMSWIRQAPGKGLEWVASITNSGGRIYYPDSVKGRFTISRENTQKTLYLQMNSLRAEDTAVYYCTLDGRDGWVAYWGQGTLVTVSSGGGGSGGGGSGGGGSNFMLTQPSSVSGVPGQRVTISCTGNTGNIGSNYVNWYQQLPGTAPKLLIYRDDKRPSGVPDRFSGSKSGTSASLAITGFQAEDEADYYCQSYSSGFIFGGGTKLTVLGAAAGAGGDYKDDDDKGAAAHHHHHH
notes: Tandem scFv
binding result [4]: binds

B8: anti-GPRC5D-anti-CD3 bispecific molecule C3022-C3E7036 (bispecific antibody)
scFv: GQVQLVQSGAEVKKPGASVKVSCKASGYTFTGYYMHWVRQAPGQGLEWMGRINPNSGGTNYAQKFQGRVTMTRDTSISTAYMELSGLRSDDTAVYYCASGSVRHPWGQGTLVTVSSGGGGSGGGGSGGGGSQPVLTQPPSASGTPGQRVTISCSGSRSNIGGNIVSWYQQFPGTAPRLLTYADNQRPSGVPDRFSGSKSGTSASLAISGLQSEDEADYYCAAWDDSLNGVVFGGGTKLTVLGGGGSEVQLVESGGGLVQPGGSLRLSCAASGVTFNYYGMSWIRQAPGKGLEWVASITNSGGRIYYPDSVKGRFTISRENTQKTLYLQMNSLRAEDTAVYYCTLDGRDGWVAYWGQGTLVTVSSGGGGSGGGGSGGGGSNFMLTQPSSVSGVPGQRVTISCTGNTGNIGSNYVNWYQQLPGTAPKLLIYRDDKRPSGVPDRFSGSKSGTSASLAITGFQAEDEADYYCQSYSSGFIFGGGTKLTVLGAAAGAGGDYKDDDDKGAAAHHHHHH
notes: Tandem scFv
binding result [4]: binds
